In patent publication US20260193293A1, “PEPTIDES CAPABLE OF INHIBITING PROTEIN-PROTEIN INTERACTIONS AT GABAB1A SUBUNIT AND USES THEREOF” (UNIVERSITY OF COPENHAGEN, priority 2022, published 2026):
Non-standard residues stand in square brackets, D forms with d. 2Nal = N[C@@H](Cc1ccc2ccccc2c1)C(=O)O

Biological target: Sushi domains (SD1/2) protein of GABAB1a (GB1a)
Experiment: FP competition vs TAMRA AJAP-1probe

Chain of Sushi domains (SD1/2) protein of GABAB1a (GB1a) (Q9Z0U4 29-158): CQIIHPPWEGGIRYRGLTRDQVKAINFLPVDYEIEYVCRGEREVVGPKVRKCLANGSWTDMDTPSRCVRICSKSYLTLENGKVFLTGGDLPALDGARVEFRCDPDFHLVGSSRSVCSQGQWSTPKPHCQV

Binder	Ki
Ac-PWFIVWGPTVSRED-NH2	461 nM
Ac-ETEFIAWGPTGDEW-NH2	54 nM
Ac-NTEFIAWGPTGDED-NH2	62 nM
Ac-DAIVWGPTVSRED-NH2 [… (SEQ ID NO: 341)]	715 nM
Ac-ETEFIAWGPSGDED-NH2	32 nM
Ac-ETEFIAWGPTGDWD-NH2	54 nM
Ac-VWAIVWGPTVSRED-NH2	412 nM
Ac-ETEFIAWGPTGDEV-NH2	40 nM
Ac-ETEFIAWGPTGDPD-NH2	34 nM
Ac-ETEFIVWGPTGDED-NH2	30 nM
Ac-ETEYIAWGPTGDED-NH2	18 nM
Ac-ETEFIAWGPTGDEF-NH2	48 nM
Ac-ETEFIAWGPTGDDD-NH2	27 nM
Ac-ETEFIAWGPTRDED-NH2	32 nM
Ac-ETEFIAWGPTHDED-NH2	30 nM
Ac-ETEFIAWGPTGYED-NH2	41 nM
Ac-ETEFIAWYPTGDED-NH2	199 nM
Ac-ETEFIAWGPHGDED-NH2	38 nM
Ac-PWAIVWGPTVDRED-NH2	379 nM
Ac-EVEFIAWGPTGDED-NH2	28 nM
Ac-PWAIVWGPTSSRED-NH2	383 nM
Ac-ETDFIAWGPTGDED-NH2	26 nM
Ac-ETEFIAWGPTGDEN-NH2	43 nM
Ac-ETEFIAWGPTGDYD-NH2	40 nM
Ac-PWFIVWGPTVSDED-NH2	192 nM
Ac-PHAIVWGPTVSRED-NH2	1500 nM
Ac-AIVWGPTVSRED-NH2 (also: asterisk not explained)	773 nM

Binder	Ki
Ac-DAIVWGPTVSRED-NH2 [… (SEQ ID NO: 342)]	208 nM
Ac-RTEFIAWGPTGDED-NH2	87 nM
Ac-ETEFIAWGPTGDEQ-NH2	37 nM
Ac-PDAIVWGPTVSRED-NH2	673 nM
Ac-ETEWIAWGPTGDED-NH2	35 nM
Ac-ETEFIAWGPTGDRD-NH2	54 nM
Ac-PFAIVWGPTVSRED-NH2	792 nM
Ac-FIVWGPTVSRED-NH2	367 nM
Ac-PWVIVWGPTVSRED-NH2	302 nM
Ac-PWYIVWGPTVSRED-NH2	336 nM
Ac-ETSFIAWGPTGDED-NH2	34 nM
Ac-ETEFIAWHPTGDED-NH2	240 nM
Ac-ETEFIAWGPTGDFD-NH2	41 nM
Ac-PWAIDWGPTVSRED-NH2	1300 nM
Ac-PWAIVWGPTGDED-NH2	222 nM
Ac-ETEFIAWGPFGDED-NH2	40 nM
Ac-ETEFIAWGPTGDEP-NH2	41 nM
Ac-PWAIVWGPTVSDED-NH2	327 nM
Ac-ETEFIAWGPTVSRED-NH2	148 nM
Ac-PSAIVWGPTVSRED-NH2	906 nM
Ac-FIVWGPTVSRED-NH2 (not fully specified; printed as FIVWGPTVSRED*)	503 nM
Ac-AIVWGPTVSRED-NH2	683 nM
Ac-PWAIVWGPTDSRED-NH2	417 nM
Ac-DWAIVWGPTVSRED-NH2	338 nM
Ac-ETEFIDWGPTGDED-NH2 [peptide 26]	9 nM
Ac-ETEFIAWGPTGHED-NH2	60 nM
Ac-ETEFIHWGPTGDED-NH2	24 nM

Biological target: Sushi domains (SD1/2) protein of the GABAB1a (GB1a) subunit, recombinant
Experiment: FP competition

Chain of Sushi domains (SD1/2) protein of the GABAB1a (GB1a) subunit, recombinant (Q9Z0U4 29-158): as above

Binder	Ki
Ac-EDDDWIDWGPTSDDDEAAAKRRRRRRRR-NH2 [17-RL-R8 (…)]	139 nM
Ac-RRRRRRRREDDDWIDWGPTSDDD-NH2 [R8-17 (Ac-…-NH2)]	58 nM
Ac-EDDDWIDWYDSDDDGGGGSRRRRRRRR-NH2 [16-FL-R8 (…)]	118 nM
Ac-EDDDWIDWGPTSDDDGGGGSRRRRRRRR-NH2 [17-FL-R8 (…)]	147 nM
Ac-RRRREDDD[2Nal]IDWGPTSDDD-NH2 (SMILES CC[C@H](C)[C@H](NC(=O)[C@H](Cc1ccc2ccccc2c1)NC(=O)[C@H](CC(=O)O)NC(=O)[C@H](CC(=O)O)NC(=O)[C@H](CC(=O)O)NC(=O)[C@H](CCC(=O)O)NC(=O)[C@H](CCCNC(=N)N)NC(=O)[C@H](CCCNC(=N)N)NC(=O)[C@H](CCCNC(=N)N)NC(=O)[C@H](CCCNC(=N)N)NC(C)=O)C(=O)N[C@@H](CC(=O)O)C(=O)N[C@@H](Cc1c[nH]c2ccccc12)C(=O)NCC(=O)N1CCC[C@H]1C(=O)N[C@H](C(=O)N[C@@H](CO)C(=O)N[C@@H](CC(=O)O)C(=O)N[C@@H](CC(=O)O)C(=O)N[C@@H](CC(=O)O)C(N)=O)[C@@H](C)O) [R4-21 (Ac-RRRREDDD(2Nala)…-NH2)]	13 nM
Ac-EDDDWIDWYDSDDDEAAAKRRRRRRRR-NH2 [16-RL-R8 (…)]	100 nM
Ac-EDDDWIDWGPTSDDDRRRRRRRR-NH2 [17-R8 (…)]	123 nM
Ac-RRRRRRRRGGGGSEDDDWIDWGPTSDDD-NH2 [R8-FL-17 (…)]	140 nM
Ac-RRRRRRRREAAAKEDDDWIDWGPTSDDD-NH2 [R8-RL-17 (…)]	105 nM
